B1: TPR t1 (parent)
chain: GACCAAUCUGCCCUCAGAGCUCGAGAACAUCUUCGGAUGCAGAGGAGGCAGGCUUCGGUGGCGCGAUAGCGCCAACGUCCUCAACCUCCAAUGCAUCCCACCACAUGAUGAUGCCUGAAGAGCCUUGGUUUUUUG

In this data set the parent is B1. The data set is described as follows: polymerase ribozyme fitness, log enrichment relative to wild type (log ratio); higher = more active; in vitro selection for triplet polymerase activity. The procedure, abridged: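 Libraries of mutants in each subunit of a heterodimeric triplet polymerase ribozyme were generated by PCR and transcribed. In triplicate, each went through one in vitro selection round: annealing with biotinylated primer, partner subunit and triplets; frozen incubation at −7 °C; gel excision of extended constructs; streptavidin-bead capture; RT-PCR. Fitness, taken from Illumina sequencing of input and output libraries, is the logarithm of a genotype's enrichment over wild-type enrichment, averaged across replicates with inverse-variance weights. The logarithm is base 2, and genotypes needed ≥10 input reads and ≥1 read per output to be kept.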
Regarding GACCAAUCUGCCCUCAGAGCUCGAGAACAUCUUCGGAUGCAGAGGAGGCAGGCUUCGGUGGCGCGAUAGCGCCUACGUCCUCAACCUCCAAUGCAUCCCACCACAUGAUGAUGCCUGAAUAGCCUUGGUUUUUUG [A74U G120U], the “polymerase ribozyme fitness (log ratio)” value is -0.788.

As for GACCAUUGUGCCCUCAGAGCUCGAGAACAUCUUCGGAUGCAGAGGAGGCAGGCUUCGGUGGCGCGAUAGCGCGAACGUCCUCAACCUACAAGGCAUCACACCACAUGAUGAUUCCUGAAGAGCCUUGGUUUUUUG [A6U C8G C73G C88A U92G C98A G113U], the “polymerase ribozyme fitness (log ratio)” value is -6.38.

Take GACCAAUCUGCUCUCAGAGCUCGAGAACAUCUUCGGAUGCAGAGGAUGCAGGCUUCGGUGGCGCGAUAGCGCCAACGUCCUCAAUCUCCAAUGCAUCCCACCACAUGAUGAUGCCUGAAGAGCCUUGGGUUUUUG [C12U G47U C85U U129G]: the “polymerase ribozyme fitness (log ratio)” value was -3.07.

As to GACCAAUCUGCCCUCAGAGCUCGAGAACAUCUUCGGAUGCAGAGGAGGCAGGCUUCGGUGGCGCGAUAGCGUCAACGUCCUCAACCUCCAAUGCAUCCCACCACACGAUGAUGCCUGAAGAGCCUUGGUUUUUUG [C72U U106C], the “polymerase ribozyme fitness (log ratio)” value is -0.313.

With GACCAAUCUGCCUUCAGAGCUCGAGAACAUCUUCGGAUGCAGAGUAGGCAGGCUUCGGUGGCGCGAUAGCGCCAACGUCCUCAGCCUCCAAUGCAUCCCACCACAUGAUGAUGCCUGAAGUGCCUUGGUUUUUUG [C13U G45U A84G A121U], the “polymerase ribozyme fitness (log ratio)” value worked out at 0.667.

GACCAAUCUGCCCUCAGAGCUCGAGAACAUCUUCGGAUGCAGAGGAGGCAGGAUUCGGUUGCGCGAUAGCGCCAACGUCCUCAACCUCCAAUGCAUCCCACCACAUGAUGAUGCCUGAAGAGCCUUGGUUUUUUG [C53A G60U]: the “polymerase ribozyme fitness (log ratio)” value was -0.129.

With GACCAAUCUGCCCUCAGAGCUCGAGAACAUCUUCGGAUGCAGAGGAGGCAGGCUUCGGUGACGCGAUAGCGCCAACGUCCUCAACCUCCACUGCAUCCCACCACAUGAUGAUGCCUGAAGAGCCUUGGUUUUUUG [G61A A91C], the “polymerase ribozyme fitness (log ratio)” value is -0.737.

With GACCAAUCUGCCCUCAGAGCUCGAGGACAUCUUCGGAUGCAGAGGAGGCAGGCUUCGGUGGCGCGCUAGCGCCAACGUCCUCAACCUCCAAUGCAUCCCACCACAUGAUGAUCCCUGAAGAGCCUGGGUUUUUUG [A26G A66C G113C U126G], the “polymerase ribozyme fitness (log ratio)” value is -6.73.

Consider GACCAAUCUGCCCUCAGAGCUCGAGAACGUCUUCGGAUGCAGAGGAGGCAGGGUUCGGUGGCGCGAUAGCGCCAACGUCCUCAACCUCCAAUGCAUCCCACCACAAGAUGAUGCCUCAAGAGCCUUGGUUUUUUG [A29G C53G U106A G117C], for which the “polymerase ribozyme fitness (log ratio)” value is -3.33.

On to GACCAAUCUGCCCUCAGAGCUCGAGAACAUCUUCGGAUGCAGAGGAGGCAGGCUUCGGUGGCGCGAUAGCUCCAACGUCCUCAACCUCCAAUGCAUCCCACCACAUGAUGAUGCCUGAAGAGCCAUGGUUUUUUG [G71U U125A], for which the “polymerase ribozyme fitness (log ratio)” value is -1.21.

For GACCAAUCUGCCCUCAGAGCUCGAGAACAUCUUCGGAUACAGAGGAGGCAGGCUUCGGUGGCGCGAUAGCGCCAACGUCCUCAACCUCCAAUGCAUCCCACCACAUGAUGAUCCCUGAAGAGCGUUGGUUUUUUG [G39A G113C C124G], the “polymerase ribozyme fitness (log ratio)” value is -1.58.

GACCAAUCUGCCCUCAGAGCUCGAGAACAUCUGCGGAUGCAGAGGAGGCAGGCUUCGGUGGCGCGAUACCGCCAACGUCGUCAACCUCCACAGCAUCCCAUCACAUGAUGAUGCGUGAAGAGCCUUGGUUUUUUG [U33G G69C C80G A91C U92A C101U C115G]: the “polymerase ribozyme fitness (log ratio)” value is -7.68.

For GACCAAUCUGCCCUCAGAGCUCGAGAACAUCUUCGGAUGCGGAGGUGGCAGGCUUCGGUGGCGCGAUAGCGCCAACGUCCUCAACCUCCAAUGCAUCCCACCACAUGAUGAUGCCUGAAGAGCCUUGGUUUUUUG [A41G A46U], the “polymerase ribozyme fitness (log ratio)” value is -3.31.

For the variant GACCAAUCUGCCCUGAGAGCUCGAGAACGUCUUCGGAUUCAGAGGAGGCAGGCUUCGGUGGCGCGAUAUCGCCAACGUCCUCAACCUCCAAUGCAUCCCACCACAUGAUGAUGCCUGAAGAGCCUUGGUUUUUUG [C15G A29G G39U G69U], the “polymerase ribozyme fitness (log ratio)” value was -4.2.

As for GACCAAUCUGCCCUCAGAGCUCGAGAACAUCUUCGGAUGCAGAGGAGGCAGGCUUCGGUGGCGCGAUAGCGCCAACGUCCUCAACCUCUGAUGCAUCCCACCACAUGAUGAUGCCUGAAGAGCCUUGGUUUUUUG [C89U A90G], the “polymerase ribozyme fitness (log ratio)” value came to 0.141.

With GACCAAUCUGCCCUCAGAGCUCGAGAACAUCUUCGGAUGCAGAAGAGGCAGGCUUCGGUGGCGCGAUAGCGCCAACGUCCUCAACCUCCAAUGCAUCCCACCACAUGAUGAUACCUGAAGAGCCUUGGUUUUUUG [G44A G113A], the “polymerase ribozyme fitness (log ratio)” value is -2.35.

Consider GACCAAUCUGCCCUCAGAGCUCGAGAACAUCUUCGGAUGCAGACGAGGCAGGCUUCGGUGGCGCGAUAACGCCAACGUCCUCAACCUCCAAUGCAUCCCACCACAUGAUGAUGCCCGAAGAGUCUUGGUUUUUUG [G44C G69A U116C C123U], for which the “polymerase ribozyme fitness (log ratio)” value was -5.92.

GACCAAUCUGCCCUCAGAGCUCGAGAACAUCUUCGGAUGCAGAGGACACAGGCUUCGGUGGCGCGAUAGCGCCAACGUCCUCAACCUCCAAUGCAUCCCACCACAUGAUGAUGCCUGAAGAGCCUUGGUUUUUUG [G47C G48A]: the “polymerase ribozyme fitness (log ratio)” value was -2.94.

Take GACCAAUCUGCCCUCAGAGCUCGAGAACAUCUUCGUAUGCAGAGGAGGCAGGCUUCGGUGGCGCGAUAGCGCCAACGUCCUCAACCUCCAUUGCAUCCCACCACAUGAUGAUGCCUGAAGAGCCUUGGUUUUUUG [G36U A91U]: the “polymerase ribozyme fitness (log ratio)” value was -2.67.

Regarding GACCACUCUGCCCUCAGAGCUCGAGAACAUCUUCGGAUUCAGAGGAGGCAGGCUUCGGUGGCACGAUAGCGCCAACGUCCUCAACCUCCAAUGCAUCCCACCACAUGAUGAUGCCUGAAGAGCCUUGGUUUUUUG [A6C G39U G63A], the “polymerase ribozyme fitness (log ratio)” value was -1.63.

GACCAAUCUGCCCUCAGAGCUCGAGAACAUCUUCGGAUGCAGAGGAGGCUGGCUUCGGUUGCGCGAUAGCGCCAACGUCCUCAACCUCCAAUGCAUCCCACCACAUGAUGAUGCCUGAAGAGCCGUGGCUUUUUG [A50U G60U U125G U129C]: the “polymerase ribozyme fitness (log ratio)” value is -3.19.
